According to patent US20200392247A1 (MCMASTER UNIVERSITY, published 2020):

B1: Anti-HER-2 DARPin Tri-TAC (full-length Trifunctional T cell-antigen coupler, configuration 1) (other)
chain: MSRGSDLGKKLLEAARAGQDDEVRILMANGADVNAKDEYGLTPLYLATAHGHLEIVEVLLKNGADVNAVDAIGFTPLHLAAFIGHLEIAEVLLKHGADVNAQDKFGKTAFDISIGNGNEDLAEILQKLNEQKLISEEDLNPGGGGGSGGGGSGGGGSGGGGSGSMDIQMTQTTSSLSASLGDRVTISCRASQDIRNYLNWYQQKPDGTVKLLIYYTSRLHSGVPSKFSGSGSGTDYSLTISNLEQEDIATYFCQQGNTLPWTFAGGTKLEIKGGGGSGGGGSGGGGSGGGGSEVQLQQSGPELVKPGASMKISCKASGYSFTGYTMNWVKQSHGKNLEWMGLINPYKGVSTYNQKFKDKATLTVDKSSSTAYMELLSLTSEDSAVYYCARSGYYGDSDWYFDVWGQGTTLTVFSTSGGGGSLESGQVLLESNIKVLPTWSTPVQPMALIVLGGVAGLLLFIGLGIFFCVRCRHRRRQAERMSQIKRLLSEKKTCQCPHRFQKTCSPI
notes: also called N-Darpin Tri TAC; full length Tri-TAC
B2: Anti-HER-2 DARPin CAR (CD28-based CAR) (other)
chain: MSRGSDLGKKLLEAARAGQDDEVRILMANGADVNAKDEYGLTPLYLATAHGHLEIVEVLLKNGADVNAVDAIGFTPLHLAAFIGHLEIAEVLLKHGADVNAQDKFGKTAFDISIGNGNEDLAEILQKLN
notes: Expressed on the surface of engineered human T cells; also called conventional CAR with the same DARPin; anti-HER-2 DARPin CD28-based CAR; not shown: rest of the CD28-based CAR (hinge, transmembrane and signalling domains)
B3: Tri-TAC variant that lacked the cytosolic domain that interacts with Lck (other)
chain: MSRGSDLGKKLLEAARAGQDDEVRILMANGADVNAKDEYGLTPLYLATAHGHLEIVEVLLKNGADVNAVDAIGFTPLHLAAFIGHLEIAEVLLKHGADVNAQDKFGKTAFDISIGNGNEDLAEILQKLNEQKLISEEDLNPGGGGGSGGGGSGGGGSGGGGSGSMDIQMTQTTSSLSASLGDRVTISCRASQDIRNYLNWYQQKPDGTVKLLIYYTSRLHSGVPSKFSGSGSGTDYSLTISNLEQEDIATYFCQQGNTLPWTFAGGTKLEIKGGGGSGGGGSGGGGSGGGGSEVQLQQSGPELVKPGASMKISCKASGYSFTGYTMNWVKQSHGKNLEWMGLINPYKGVSTYNQKFKDKATLTVDKSSSTAYMELLSLTSEDSAVYYCARSGYYGDSDWYFDVWGQGTTLTVFSTSGGGGSLESGQVLLESNIKVLPTWSTPVQPMALIVLGGVAGLLLFIGLGIFF
notes: Expressed in 293TM cells; also called cytosolic deletion; TAC without cytosolic domain

Tests used:
β-Actin = β-Actin (UniProt P60709 1-375); experiment: immunoprecipitation of the Tri-TAC with recombinant HER-2 beads from 293TM cells, Western blot
Description: (§1) FIG. 5 illustrates Lck interaction with the Tri-TAC. In FIG. 5A, 293TM cells were engineered to express Lck in combination with either the full-length Tri-TAC or a Tri-TAC variant that lacked the cytosolic domain that interacts with Lck. The Tri-TAC receptors were immunoprecipitated with beads carrying recombinant HER-2 protein. The precipitated Tri-TAC was measured by Western blot with an antibody against the myc tag. Co-precipitated Lck was identified by Western blot with an antibody against Lck. β-Actin was not pulled down and only detected in the supernatant (S). Both full length Tri-TAC and the Tri-TAC that lacked the cytosolic domain were efficiently pulled down and detected in the bound fraction (B). […] Greater amounts of Lck were co-immunopreciptated with the full-length Tri-TAC relative to the controls. […] Signal was corrected relative to the negative control.

recombinant HER-2 = target: T1, recombinant HER-2 (UniProt P04626 23-652, limits assumed); experiment: flow cytometry of engineered T cells stained with recombinant HER-2
T1 construct: also called recombinant HER-2 protein; HER-2 (erbB-2)
Description: The chimeric receptors were detected by incubation with recombinant HER-2. The Anti-HER-2 DARPin Tri-TAC was expressed well on the surface of the engineered T cells. However, its maximal surface expression was lower compared to the Anti-HER-2 DARPin CAR construct. […] T cells were activated with anti-CD3/anti-CD28 Dynabeads and engineered with lentiviruses encoding the Tri-TAC, CAR or no receptor (control). After 2 weeks, the CAR and control cultures had grown to similar numbers while the Tri-TAC cultures grew slightly more slowly.

Lck = target: T2, Lck (UniProt P06239 1-509, limits assumed); experiment: co-immunoprecipitation with recombinant HER-2 beads from 293TM cells, Western blot for Lck
T2 construct: also called protein kinase Lck
T2 sequence (P06239 whole entry): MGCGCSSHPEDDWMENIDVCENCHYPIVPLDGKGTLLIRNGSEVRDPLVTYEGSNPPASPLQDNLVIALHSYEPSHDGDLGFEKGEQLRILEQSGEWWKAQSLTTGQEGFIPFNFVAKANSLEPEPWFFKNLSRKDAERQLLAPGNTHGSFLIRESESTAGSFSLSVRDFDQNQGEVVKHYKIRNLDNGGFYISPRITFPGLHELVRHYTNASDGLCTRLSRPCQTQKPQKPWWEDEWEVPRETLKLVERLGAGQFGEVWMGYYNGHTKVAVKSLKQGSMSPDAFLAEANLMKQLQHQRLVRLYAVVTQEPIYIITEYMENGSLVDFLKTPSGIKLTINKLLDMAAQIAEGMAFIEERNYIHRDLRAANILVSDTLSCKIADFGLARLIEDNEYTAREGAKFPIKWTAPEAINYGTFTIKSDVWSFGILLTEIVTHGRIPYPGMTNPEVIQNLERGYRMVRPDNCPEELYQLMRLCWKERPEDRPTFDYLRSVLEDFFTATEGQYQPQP
Description: as §1

Binder	binding result (β-Actin)	binding result (recombinant HER-2)	binding result (Lck)
B1	no binding	binds	
B2		binds	
B3	no binding		no binding
